According to PMC10934791 (Molecules, 2024):

B1: radioiodinated α-bungarotoxin (ligand)
chain: IVCHTTATSPISAVTCPPGENLCYRKMWCDAFCSSRGKVVELGCAATCPSKKPYEEVTCCSTDKCNPHPKQRPG

Legend:
[1] = biological target: recombinant Lymnaea stagnalis acetylcholine-binding protein (AChBP) produced in LEXSY (Lymnaea stagnalis); experiment: radioligand binding
[2] = biological target: T1, recombinant L. stagnalis AChBP expressed in the insect Sf9 cells (Lymnaea stagnalis, UniProt P58154 20-229); experiment: radioligand binding; conditions: both partners purified
T1 construct: also called insect cell-produced AChBP; standard specimen of insect cell-produced AChBP
T1 sequence (P58154 20-229): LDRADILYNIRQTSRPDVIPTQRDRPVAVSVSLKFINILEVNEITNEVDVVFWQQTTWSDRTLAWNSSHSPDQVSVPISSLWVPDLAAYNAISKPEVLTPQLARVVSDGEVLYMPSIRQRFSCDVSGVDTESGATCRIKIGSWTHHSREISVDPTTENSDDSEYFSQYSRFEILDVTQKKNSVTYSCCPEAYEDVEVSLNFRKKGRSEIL

recombinant Lymnaea stagnalis acetylcholine-binding protein (AChBP) produced in LEXSY (Lymnaea stagnalis), sequence (P58154 20-229 limits assumed): as the sequence (P58154 20-229) above

| Molecule | Kd [1] [nM] | Kd [2] [nM] |
| --- | --- | --- |
| radioiodinated α-bungarotoxin (from UniProt P60615 22-95) (ligand) | 0.05 |  |
| B1 |  | 0.062 ± 0.013 |
